Laboratory results published in publication PMC4059916.

Molecular target: VARP451-640His6 Q509A (human) (UniProt Q96NW4)
Assay: ITC; Nano ITC; VARP constructs at 60 μM in the cell at 4°C, Rab constructs at 300 μM titrated, 24 injections of 2 μl; 50 mM HEPES pH 7.4, 200 mM NaCl, 5 mM MgCl2, 1 mM TCEP

Chain of VARP451-640His6 Q509A (human) (Q96NW4 451-640 Q509A): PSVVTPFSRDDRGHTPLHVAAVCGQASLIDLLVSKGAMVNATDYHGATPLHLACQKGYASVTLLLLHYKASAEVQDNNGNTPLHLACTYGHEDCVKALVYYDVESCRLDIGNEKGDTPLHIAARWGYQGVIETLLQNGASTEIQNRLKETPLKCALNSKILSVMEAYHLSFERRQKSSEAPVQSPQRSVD

“Rab32 1-225 (Q85L), GTP hydrolysis-defective mutant, GST removed (from UniProt Q13637 1-225) (enzyme)” was tested, and the Kd was 30 µM.
